Where a chain is given by its changes, count along the chain named. Numbers in names are those of the source.
B1: OphMA wild type, full-length, His8-tagged (enzyme, Omphalotus olearius, UniProt A0A2R2JFI5 1-417, looked up)
chain: METSTQTKAGSLTIVGTGIESIGQMTLQALSYIEAAAKVFYCVIDPATEAFILTKNKNCVDLYQYYDNGKSRLNTYTQMSELMVREVRKGLDVVGVFYGHPGVFVNPSHRALAIAKSEGYRARMLPGVSAEDCLFADLCIDPSNPGCLTYEASDFLIRDRPVSIHSHLVLFQVGCVGIADFNFTGFDNNKFGVLVDRLEQEYGAEHPVVHYIAAMMPHQDPVTDKYTVAQLREPEIAKRVGGVSTFYIPPKARKASNLDIIRRLELLPAGQVPDKKARIYPANQWEPDVPEVEPYRPSDQAAIAQLADHAPPEQYQPLATSKAMSDVMTKLALDPKALADYKADHRAFAQSVPDLTPQERAALELGDSWAIRCAMKNMPSSLLDAARESGEEASQNGFPWVIVVGVIGVIGSVMSTE
modifications: backbone N-methylation: most abundant species with complete methylation of the core peptide (9-fold) and an additional methylation at Val413
B2: OphMA V404E, full-length, His-tagged (in vivo methylation series) (enzyme)
chain: B1 chain with V404E
modifications: backbone N-methylation: peptides with 2 methylations
B3: OphMA I407F, full-length, His-tagged (enzyme)
chain: B1 chain with I407F
modifications: backbone N-methylation: mainly a tetramethylated species with some pentamethylated species
B4: OphMA V406P, full-length, His-tagged (in vivo methylation series) (enzyme)
chain: B1 chain with V406P
modifications: backbone N-methylation: dominant species unmethylated, evidence for two and four methylations
B5: OphMA V403T, full-length, His-tagged (enzyme)
chain: B1 chain with V403T
modifications: backbone N-methylation: 10-fold methylated species most abundant
B6: OphMA V404R, full-length, His-tagged (enzyme)
chain: B1 chain with V404R
modifications: backbone N-methylation: dominant species unmethylated, next most abundant with two methylations
B7: OphMA V404T, full-length, His-tagged (enzyme)
chain: B1 chain with V404T
modifications: backbone N-methylation: 10-fold methylated species most abundant
B8: OphMA V406E, full-length, His-tagged (enzyme)
chain: B1 chain with V406E
modifications: backbone N-methylation: mixture of similarly abundant peptides containing 4, 5, or 6 methylations
B9: OphMA V406F, full-length, His-tagged (enzyme)
chain: B1 chain with V406F
modifications: backbone N-methylation: a tetramethylated species and, to a lesser extent, a trimethylated species
B10: OphMA I407R, full-length, His-tagged (enzyme)
chain: B1 chain with I407R
modifications: backbone N-methylation: dominant species carried three methylations
B11: OphMA V406R, full-length, His-tagged (enzyme)
chain: B1 chain with V406R
modifications: backbone N-methylation: dominant species unmethylated, next most abundant with two methylations
B12: OphMA I407T, full-length, His-tagged (enzyme)
chain: B1 chain with I407T
modifications: backbone N-methylation: 9-fold methylated species most abundant
B13: OphMA V403P, full-length, His-tagged (enzyme)
chain: B1 chain with V403P
modifications: backbone N-methylation: dominant species unmethylated, evidence for two methylations
B14: OphMA V404F, full-length, His-tagged (enzyme)
chain: B1 chain with V404F
modifications: backbone N-methylation: mainly monomethylated
B15: OphMA V403E, full-length, His-tagged (enzyme)
chain: B1 chain with V403E
modifications: backbone N-methylation: peptides with 1 methylation
B16: OphMA V406T, full-length, His-tagged (enzyme)
chain: B1 chain with V406T
modifications: backbone N-methylation: 3-fold methylated species most abundant
B17: OphMA V403F, full-length, His-tagged (enzyme)
chain: B1 chain with V403F
modifications: backbone N-methylation: comparably abundant monomethylated, dimethylated, trimethylated and tetramethylated species
B18: OphMA V403R, full-length, His-tagged (enzyme)
chain: B1 chain with V403R
modifications: backbone N-methylation: dominant species unmethylated, next most abundant with two methylations
B19: OphMA I407E, full-length, His-tagged (enzyme)
chain: B1 chain with I407E
modifications: backbone N-methylation: peptides with 5 methylations
B20: OphMA I407P, full-length, His-tagged (in vivo methylation series) (enzyme)
chain: B1 chain with I407P
modifications: backbone N-methylation: a variety of species (two to four methylations), evidence of up to six
B21: OphMAΔC6-V404F (crystallised with SAH) (enzyme)
chain: METSTQTKAGSLTIVGTGIESIGQMTLQALSYIEAAAKVFYCVIDPATEAFILTKNKNCVDLYQYYDNGKSRLNTYTQMSELMVREVRKGLDVVGVFYGHPGVFVNPSHRALAIAKSEGYRARMLPGVSAEDCLFADLCIDPSNPGCLTYEASDFLIRDRPVSIHSHLVLFQVGCVGIADFNFTGFDNNKFGVLVDRLEQEYGAEHPVVHYIAAMMPHQDPVTDKYTVAQLREPEIAKRVGGVSTFYIPPKARKASNLDIIRRLELLPAGQVPDKKARIYPANQWEPDVPEVEPYRPSDQAAIAQLADHAPPEQYQPLATSKAMSDVMTKLALDPKALADYKADHRAFAQSVPDLTPQERAALELGDSWAIRCAMKNMPSSLLDAARESGEEASQNGFPWVIVFGVIGVIG
modifications: backbone N-methyl at Val401 and Val403 (in the crystal structure)

Target: the molecule itself
Assay: SEC; Superdex-200 Increase column, 25 mM Tris-HCl (pH 8.0), 10% (v/v) glycerol, 100 mM NaCl; retention time of mutants compared with wild type

Protein	stoichiometry N
B1	2
B2	2
B3	2
B4	2
B5	2
B6	2
B7	2
B8	2
B9	2
B10	2
B11	2
B12	2
B13	2
B14	2
B15	2
B16	2
B17	2
B18	2
B19	2
B20	2

Target: the molecule itself
Assay: crystal structure; hanging drop, 16 °C; protein (30-50 mg/mL) preincubated with 3 mM SAM; 0.3-0.4 M KSCN, 1.8-2.4 M sodium malonate, 0.1 M bicine pH 8.5-9.3; SAH bound

Protein	binding result
B21	binds

Source: article PMC7372559 (ACS Chemical Biology, 2020)
